Assay [1] addresses T1, Tencon25.
T1 construct: Artificial FN3 domain (centyrin scaffold) with no target specificity; It was the immunogen; also called Tencon-T25
T1 chain: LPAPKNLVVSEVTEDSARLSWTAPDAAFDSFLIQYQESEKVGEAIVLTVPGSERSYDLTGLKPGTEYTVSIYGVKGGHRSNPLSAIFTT
The experiment in a line: flow cytometry, CAR-electroporated T cells stained with 50 nM APC labeled Tencon-25. As to the method:
For AS7B16 and AS7B82, binding was assessed using flow cytometry. Briefly, Twenty-four hours post-electroporation, cells were centrifuged at 100×g for 10 minutes and washed two times in FACS stain buffer (BD Biosciences Catalog#554657). Cells were incubated with either APC labeled […] or AF647 labeled anti-EGFR 83v2 FN3 domains at a final concentration of 50 nM at 4° C. for 1 hour. The labeled cells were washed twice in FACS stain buffer and re-suspended in 200 uL of the same buffer. Data was collected using a BD LSRFortessa flow cytometer and analysis was performed using Flowjo software. All CARTs tested, AS7B16, AS7B82 and AS7B91 bind to both FN3 domains tested, Tencon-T25 and EGFR 83v2. Binding of CARTs occurs in the following manner: ASS7B91>AS7B82>AS7B16.
On the technique in general: Flow cytometry measures light scatter and fluorescence of single cells or particles in a stream.

The target in assay [2] is T1, Tencon25. Put plainly: flow cytometry on CAR-electroporated primary T cells, labeled Tencon25.
Assay [3] has as its target anti-BCMA CARTyrins expressed on the surface of primary T cells. The experiment in a line: cell-based or functional assay.
Assay [4] addresses T2, FN3 domain A3 specific for human cMET.
T2 construct: it carries a C-terminal His tag
T2 chain: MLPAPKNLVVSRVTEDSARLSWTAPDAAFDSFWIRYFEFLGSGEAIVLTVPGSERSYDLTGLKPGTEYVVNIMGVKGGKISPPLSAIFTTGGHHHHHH
The experiment in a line: ELISA, coated FN3 domain in dose-response, supernatant at 1 µg/ml, luminescence. As to the method:
(§1) Three plates were coated with dose-response curves of, FN3 domain A3 specific for human cMET (SEQ ID NO: 31), 83v2-ABD specific for human EGFR with an albumin binding domain (SEQ ID NO: 32), tencon 25 that has no specificity (SEQ ID NO: 28), or negative control protein, all at 50 μL/well in 50 mM PBS. Plates were incubated over night at 4° C. Supernatants were dumped from plates and 200 μL/well Superblock was added to block plates for 1 hour at RT. […] Plates were incubated for 1 hour at RT. Plates were washed 3× with TBS-T. Secondary antibodies (HRP-goat anti-rabbit, rat or mouse) were prepared at 1:10,000 in Superblock and added to the plates. Plates were incubated for 1 hour at RT. Plates were washed 3× with TBS-T. 50 μL/well POD reagent (prepared according to Sigma-Aldrich manufacturer's instructions and incubated in the dark at RT for at least 30 minutes prior to use) was added to plates. After 3-5 minute incubation, protected from light, the M5 was used to read luminescence. The results were plotted in Prism (FIGS. 1A-C) using a Log/Log transformation, and then a four-parameter curve fit. […] It should be noted that there was no non-specific binding to negative control antibody. The mouse version of the antibody, AS7B91, appeared to have binding characteristics more similar to the original rabbit hybridoma antibody.
In general terms: An ELISA detects its analyte on a solid surface through an enzyme-linked reagent.

Assay [5] concerns the target T3, 83v2-ABD specific for human EGFR with an albumin binding domain.
T3 chain: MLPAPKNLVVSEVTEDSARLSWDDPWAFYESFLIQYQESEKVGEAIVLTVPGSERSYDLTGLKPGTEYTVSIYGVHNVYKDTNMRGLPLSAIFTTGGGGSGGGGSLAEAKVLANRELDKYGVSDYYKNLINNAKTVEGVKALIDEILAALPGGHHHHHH
The description is as above. The method, then: as §1

The target of assay [6] is T1, Tencon25. The description is as above. As to the method:
as §1

B1: AS7B16 scFv CAR, H-L orientation (scFv)
chain: QVTLKESGPGILQPSQTLSLTCSFSGFSLNTSGTGVGWIRQPSGKGLEWLAHIWWDDDKGYNPALKSRLTISKNTSSNLVFLKIASVDTADTATYYCVRIKGRMDYWGQGTSVTVSSGGGGSGGGGSGGGGSGGGGSNIMMTQSPSSLAVSAGEKVTMNCKSSQSVLFGSKQKNYLAWYQQKPGQSPKLLIYWASTRESGVPDRFTGSGSGTDFILTISNVQAEDLAVYYCHQYLSLFTFGSGTKLEIKTTTPAPRPPTPAPTIASQPLSLRPEACRPAAGGAVHTRGLDFACDIYIWAPLAGTCGVLLLSLVITLYCKRGRKKLLYIFKQPFMRPVQTTQEEDGCSCRFPEEEEGGCELRVKFSRSADAPAYKQGQNQLYNELNLGRREEYDVLDKRRGRDPEMGGKPRRKNPQEGLYNELQKDKMAEAYSEIGMKGERRRGKGHDGLYQGLSTATKDTYDALHMQALPPR
notes: Chimeric antigen receptor on mRNA-electroporated human pan T cells; also called AS7B16 H2L; AS7B16 H-L CAR ECD
As for B1, in the assay with Tencon25 [1], the binding result is given as “binds”.

B2: AS7B91 scFv H-L CAR (scFv)
chain: QSLEESGGRLVTPGTPLTLTCTVSGIDLSTSVMGWVRQAPGKGLESIGFIYTNVNTYYASWAKGRFTISRTSTTVDLKITSPTTGDTATYFCARAVYAGAMDLWGQGTLVTVSSGGGGSGGGGSGGGGSGGGGSDVVMTQTPASVSGPVGGTVTIKCQASERIYSNLAWYQQKPGQPPKLLIYKASTLASGVSSRFKGSGSGTEFTLTIRDLECADAATYSCQYTSYGSGYVGTFGGGTEVVVEGTTTPAPRPPTPAPTIASQPLSLRPEACRPAAGGAVHTRGLDFACDIYIWAPLAGTCGVLLLSLVITLYCKRGRKKLLYIFKQPFMRPVQTTQEEDGCSCRFPEEEEGGCELRVKFSRSADAPAYKQGQNQLYNELNLGRREEYDVLDKRRGRDPEMGGKPRRKNPQEGLYNELQKDKMAEAYSEIGMKGERRRGKGHDGLYQGLSTATKDTYDALHMQALPPR
notes: Chimeric antigen receptor on mRNA-electroporated human pan T cells; also called BAR-T variant 2; AS7B91 H-L CAR ECD
For B2, the binding result with Tencon25 [2] is given as “binds”.

B3: AS7B16 scFv CAR, L-H orientation (scFv)
chain: NIMMTQSPSSLAVSAGEKVTMNCKSSQSVLFGSKQKNYLAWYQQKPGQSPKLLIYWASTRESGVPDRFTGSGSGTDFILTISNVQAEDLAVYYCHQYLSLFTFGSGTKLEIKGGGGSGGGGSGGGGSGGGGSQVTLKESGPGILQPSQTLSLTCSFSGFSLNTSGTGVGWIRQPSGKGLEWLAHIWWDDDKGYNPALKSRLTISKNTSSNLVFLKIASVDTADTATYYCVRIKGRMDYWGQGTSVTVSSTTTPAPRPPTPAPTIASQPLSLRPEACRPAAGGAVHTRGLDFACDIYIWAPLAGTCGVLLLSLVITLYCKRGRKKLLYIFKQPFMRPVQTTQEEDGCSCRFPEEEEGGCELRVKFSRSADAPAYKQGQNQLYNELNLGRREEYDVLDKRRGRDPEMGGKPRRKNPQEGLYNELQKDKMAEAYSEIGMKGERRRGKGHDGLYQGLSTATKDTYDALHMQALPPR
notes: Chimeric antigen receptor on mRNA-electroporated human pan T cells; also called AS7B16 L2H; AS7B16 L-H CAR ECD
As to B3, the binding result with Tencon25 [1] was “binds”.

B4: AS7B91 scFv L-H CAR (scFv)
chain: DVVMTQTPASVSGPVGGTVTIKCQASERIYSNLAWYQQKPGQPPKLLIYKASTLASGVSSRFKGSGSGTEFTLTIRDLECADAATYSCQYTSYGSGYVGTFGGGTEVVVEGGGGGSGGGGSGGGGSGGGGSLEESGGRLVTPGTPLTLTCTVSGIDLSTSVMGWVRQAPGKGLESIGFIYTNVNTYYASWAKGRFTISRTSTTVDLKITSPTTGDTATYFCARAVYAGAMDLWGQGTLVTVSSTTTPAPRPPTPAPTIASQPLSLRPEACRPAAGGAVHTRGLDFACDIYIWAPLAGTCGVLLLSLVITLYCKRGRKKLLYIFKQPFMRPVQTTQEEDGCSCRFPEEEEGGCELRVKFSRSADAPAYKQGQNQLYNELNLGRREEYDVLDKRRGRDPEMGGKPRRKNPQEGLYNELQKDKMAEAYSEIGMKGERRRGKGHDGLYQGLSTATKDTYDALHMQALPPR
notes: Chimeric antigen receptor on mRNA-electroporated human pan T cells; also called BAR-T variant 1; AS7B91 L-H CAR ECD
With B4, the binding result with Tencon25 [2] is reported as “binds”.

B5: AS7B91 (antibody, mouse IgG2a, kappa)
heavy: QSLEESGGRLVTPGTPLTLTCTVSGIDLSTSVMGWVRQAPGKGLESIGFIYTNVNTYYASWAKGRFTISRTSTTVDLKITSPTTGDTATYFCARAVYAGAMDLWGQGTLVTVSSAKTTAPSVYPLAPVCGDTTGSSVTLGCLVKGYFPEPVTLTWNSGSLSSGVHTFPAVLQSDLYTLSSSVTVTSSTWPSQSITCNVAHPASSTKVDKKIEPRGPTIKPCPPCKCPAPNLLGGPSVFIFPPKIKDVLMISLSPIVTCVVVDVSEDDPDVQISWFVNNVEVHTAQTQTHREDYNSTLRVVSALPIQHQDWMSGKEFKCKVNNKDLPAPIERTISKPKGSVRAPQVYVLPPPEEEMTKKQVTLTCMVTDFMPEDIYVEWTNNGKTELNYKNTEPVLDSDGSYFMYSKLRVEKKNWVERNSYSCSVVHEGLHNHHTTKSFSRTPGK
light: DVVMTQTPASVSGPVGGTVTIKCQASERIYSNLAWYQQKPGQPPKLLIYKASTLASGVSSRFKGSGSGTEFTLTIRDLECADAATYSCQYTSYGSGYVGTFGGGTEVVVEGRADAAPTVSIFPPSSEQLTSGGASVVCFLNNFYPKDINVKWKIDGSERQNGVLNSWTDQDSKDSTYSMSSTLTLTKDEYERHNSYTCEATHKTSTSPIVKSFNRNEC
notes: also called a-Centyrin
In assay [3], B5 came in with an increase in cell number compared to unstimulated cells of 11 fold. Further, the binding result (in assay [4]; in assay [5]; in the assay with Tencon25 [6]) was “binds” throughout.

B6: AS7B90 (antibody, rat IgG1)
heavy: QSLEESGGRLVTPGTPLTLTCTVSGIDLSTSVMGWVRQAPGKGLESIGFIYTNVNTYYASWAKGRFTISRTSTTVDLKITSPTTGDTATYFCARAVYAGAMDLWGQGTLVTVSSAETTAPSVYPLAPGTALKSNSMVTLGCLVKGYFPEPVTVTWNSGALSSGVHTFPAVLQSGLYTLTSSVTVPSSTWPSQTVTCNVAHPASSTKVDKKIVPRNCGGDCKPCICTGSEVSSVFIFPPKPKDVLTITLTPKVTCVVVDISQDDPEVHFSWFVDDVEVHTAQTRPPEEQFNSTFRSVSELPILHQDWLNGRTFRCKVTSAAFPSPIEKTISKPEGRTQVPHVYTMSPTKEEMTQNEVSITCMVKGFYPPDIYVEWQMNGQPQENYKNTPPTMDTDGSYFLYSKLNVKKEKWQQGNTFTCSVLHEGLHNHHTEKSLSHSPGK
light: DVVMTQTPASVSGPVGGTVTIKCQASERIYSNLAWYQQKPGQPPKLLIYKASTLASGVSSRFKGSGSGTEFTLTIRDLECADAATYSCQYTSYGSGYVGTFGGGTEVVVEGRADAAPTVSIFPPSSEQLASGGASVVCFINKFYPKDISVKWKIDGSERQNDVLNSVTDQDSKDSTYSMSSTLTLTKADYERHNLYTCEVVHKTSASPVVKSFNRNEC
B6: the binding result (in assay [4]; in assay [5]; with Tencon25 [6]) was “binds” in each case.

The values above are taken from patent publication US20190016789A1 (Janssen / Centocor, published 2019).
